Assay results from US20180111991A1, “MODULATORS OF ACTIVIN AND METHODS FOR MODULATING IMMUNE RESPONSES AND T FOLLICULAR HELPER CELLS” (LA JOLLA INSTITUTE FOR ALLERGY AND IMMUNOLOGY, priority 2014, published 2018).

Experiments:
SMAD2/3 [1] = assay: Analysis of phosphorylated SMAD2/3 in tonsil CD4 T cells; type: cell-based, human; settings: tonsil naïve CD4 T cells, activin A+Galunisertib
From the text: (§1) Fresh PBMCs and tonsil mononuclear cells were serum-starved over night in AIM-V medium. […] Following stimulation, the cells were fixed in BD Phosflow™ Fix Buffer I (BD Biosciences), then permeabilized using BD Phosflow™ Perm Buffer III (BD Biosciences) following manufacture's instruction.

ALK4 = biological target: T1, ALK4 (Homo sapiens, UniProt P36896); assay: SMAD2/3 inhibition experiments (ALK4 inhibitors) in Tfh differentiation; type: cell-based; settings: activin A+IL-12, 5 days, vs vehicle (DMSO)
T1 construct: endogenous in cells; host or cells: primary human naive CD4+ T cells from PBMCs
T1 sequence (P36896 24-505): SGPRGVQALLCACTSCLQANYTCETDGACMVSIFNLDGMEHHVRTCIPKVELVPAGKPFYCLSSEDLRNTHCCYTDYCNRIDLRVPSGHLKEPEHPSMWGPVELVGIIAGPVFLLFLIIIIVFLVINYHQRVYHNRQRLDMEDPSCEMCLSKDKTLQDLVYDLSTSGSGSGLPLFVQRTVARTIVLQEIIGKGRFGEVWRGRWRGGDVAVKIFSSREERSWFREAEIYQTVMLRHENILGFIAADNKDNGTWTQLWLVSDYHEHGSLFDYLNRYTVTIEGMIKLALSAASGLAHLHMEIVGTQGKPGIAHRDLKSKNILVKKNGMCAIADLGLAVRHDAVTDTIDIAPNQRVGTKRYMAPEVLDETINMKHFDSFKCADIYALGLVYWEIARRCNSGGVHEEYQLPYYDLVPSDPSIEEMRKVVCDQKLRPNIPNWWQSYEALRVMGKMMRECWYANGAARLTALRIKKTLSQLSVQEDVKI

SMAD2/3 [2] = assay: Analysis of phosphorylated SMAD2/3 in blood naïve CD4 T cells; type: cell-based, human; settings: activin A + SB 431542 (10 μM)
From the text: as §1

human naïve CD4 T cells [3] = assay: In vitro Tfh differentiation, PD-1 and CXCR5 expression by FACS; type: cell-based; settings: for synergy with activin A on CXCR5 and PD-1 expression: IL-12 family cytokine added to activin A, serum-free conditions
Protocol: (§2) For surface staining, primary-staining panels used for phenotypic analysis or for cell sorting known in the art were used. For the intranuclear staining: cells were treated with the FoxP3 Fixation/Permeabilization kit (eBioscience) and stained in Permeabilization buffer (eBioscience). For cytokine staining: day 3 or day 5 in vitro differentiated cells (specified in the main text or in figure legends) cells were stimulated for 5 hours at 37° C. with Phorbol 12-myristate 13-acetate (PMA, 25 ng/ml) and Ionomycin (1 μg/ml) in the presence of Brefeldin A (5 μg/ml). Cells were fixed with PBS 2% FBS, 1% PFA and permeabilized with PBS 2% FBS, 0.5% Saponin (from quillaja bark, Sigma-Aldrich). Samples were analyzed on a LSR Fortessa Cell Analyzer (BD, Bioscience). Flow cytometry data were analyzed with FlowJo (Tree Star). For cell sorting, cells were sorted using sorted using a FACS Aria (BD, Bioscience).
Unless differently specified, naïve CD4^+ T cells were enriched from PBMCs by magnetic bead negative selection with the Naïve CD4^+ T Cell Isolation Kit (Stem Cell Technologies). Purity (CD4^+CD45RA^+) was 90% or higher. Cells (7.5×10^4 cells/well) were activated by Dynabeads Human T-Activator CD3/CD28 (2 μl/well, Life Technologies) and cultured with recombinant human/mouse/rat activin A (50 ng/ml or 100 ng/ml), recombinant human IL-12 (5 ng/ml), recombinant human TGFβ (1 ng/ml), recombinant human IL-23 (10 ng/ml) or recombinant human IL-35 (10 ng/ml) in the presence of and recombinant human IL-7 (4 ng/ml) in AIM-V medium (Life Technologies). All cytokines were from R&D System and Peprotech. The 14 kDa mature human beta A chain of human activin A shares 100% amino acid sequence identity with bovine, feline, mouse, porcine, and rat beta A. Phenotype was quantified after 3 or 5 days, as specified in the main text of Figure legends. Similar results were obtained when using Treg-depleted FACS sorted naïve CD4 T cells, in which cells were sorted from total PBMCs by flow cytometry as CD19^−CD8^−CD14^−CD16^− CD4^+CD45RO^−CD25^− cells. For experiments quantifying supernatant CXCL13 concentration, cells were activated by plate-bound anti-human CD3 (5 μg/ml, BD) and ICOS-L (5 μg/ml, recombinant human B7-H2, R&D). CXCL13 concentrations were determined via human CXCL13 DuoSet ELISA (R&D) on supernatants harvested after 5 days of in vitro culture. For blocking experiments, cells were cultured with anti-activin A blocking mAb (5 μg/ml, clone 69403, R&D), anti-TGFβ mAb (100 μg/ml, clone 1D11.16.8, BioXcell), or equivalent concentration of mouse IgG1 isotype mAb (BioXcell). For blockade of IL-2, cells were cultured with anti-IL-2 blocking mAb (10 μg/ml, clone 5334, R&D) or mouse IgG1 isotype mAb (BioXcell).

human naïve CD4 T cells [4] = assay: Intracellular cytokine staining after PMA/Ionomycin restimulation; type: cell-based; settings: cells cultured with IL-12, PMA/Ionomycin re-stimulation
Protocol: as §2

[5] = tested on: autologous memory B cells; assay: T-B co-culture, B cell help; type: cell-based, human; settings: T-B co-cultures
human naïve CD4 T cells [6] = assay: Screening of secretomics recombinant proteins for Tfh marker induction; type: cell-based; settings: secretomics protein screen, anti-CD3/CD28 beads, 5 days, automated FACS
Protocol: FIG. 1A-D: Inhibin beta A (INHBA) emerged from the screen as potent regulator of human Tfh differentiation. (A) Schematic of primary screen. Purified human naïve CD4 T cells from a leukapheresis donor were stimulated by anti-CD3/CD28 beads on 384 well plates on day 0. The GNF secretomics recombinant proteins were added at the beginning of the stimulation. Each secretomics protein was tested in duplicate. After 5 days of in vitro culture, cells were evaluated by automated FACS analysis for the expression of Tfh signature markers, including CXCR5 and PD-1. (B) Primary screen results. Relative enrichment of PD-1^+CXCR5^+ cell induction is reported as Z score for each recombinant protein. INHBA gene product is shown in red. (C) CXCR5 and PD-1 expression from repeat experiment in which INHBA gene product was tested again for its capacity to induce Tfh-like differentiation. (D) Confocal microscopy of INHBA expression in human tonsils. Tonsil sections were stained with anti-INHBA (red) anti-BCL6 (blue) and anti-CD3 (green) Abs. An overlay from one donor representative of six is shown on the left panel. […]
Naïve CD4^+ T cells were isolated from leukapheresis-derived mononuclear cells via CliniMACS negative selection (Miltenyi Biotec). […] Induction of CXCR5 and PD-1 was assessed after 5 days of in vitro culture using automated FACS acquisition via HTS on LSR Fortessa (BD Biosciences). For each 384 well plate, mean and standard deviation of PD-1^+CXCR5^+ cell frequency induced by each individual recombinant proteins was determined and used to calculate the Z score. Z scores of replicate plates were analyzed independently.
To discover novel regulators of human Tfh cell differentiation, we performed an unbiased high throughput screen of a human extracellular proteome library consisting of over 2000 human proteins predicted or known to be cytokines, chemokines, morphogens, costimulatory receptors, or single pass transmembrane molecules^19. […] Following 5 days, expression of the Tfh signature markers CXCR5 and PD-1 were measured on the cells by flow cytometry, in an automated fashion. […]

Molecule: Cc1cccc(-c2nn3c(c2-c2ccnc4ccc(C(N)=O)cc24)CCC3)n1 [Galunisertib, reference compound]
- inhibition of activin A-induced SMAD2/3 phosphorylation (SMAD2/3 [1]): abolished
- suppression of PD-1+CXCR5+ cell generation in response to activin A (ALK4): potent suppression

Molecule: NC(=O)c1ccc(-c2nc(-c3ccc4c(c3)OCO4)c(-c3ccccn3)[nH]2)cc1 [SB 431542, reference compound]
- reduction of activin A-mediated SMAD2/3 phosphorylation (SMAD2/3 [2]): strong reduction

B1: IL-12: recombinant human cytokine (protein, UniProt P29459 23-219; P29460 23-328, looked up)
Interleukin-12 subunit alpha: RNLPVATPDPGMFPCLHHSQNLLRAVSNMLQKARQTLEFYPCTSEEIDHEDITKDKTSTVEACLPLELTKNESCLNSRETSFITNGSCLASRKTSFMMALCLSSIYEDLKMYQVEFKTMNAKLLMDPKRQIFLDQNMLAVIDELMQALNFNSETVPQKSSLEEPDFYKTKIKLCILLHAFRIRAVTIDRVMSYLNAS
Interleukin-12 subunit beta: IWELKKDVYVVELDWYPDAPGEMVVLTCDTPEEDGITWTLDQSSEVLGSGKTLTIQVKEFGDAGQYTCHKGGEVLSHSLLLLHKKEDGIWSTDILKDQKEPKNKTFLRCEAKNYSGRFTCWWLTTISTDLTFSVKSSRGSSDPQGVTCGAATLSAERVRGDNKEYEYSVECQEDSACPAAEESLPIEVMVDAVHKLKYENYTSSFFIRDIIKPDPPKNLQLKPLKNSRQVEVSWEYPDTWSTPHSYFSLTFCVQVQGKSKREKKDRVFTDKTSATVICRKNASISVRAQDRYYSSSWSEWASVPCS
- synergy with activin A on CXCR5 and PD-1 expression (human naïve CD4 T cells [3]): enhanced
- IL-21 production (human naïve CD4 T cells [4]): capable of producing IL-21
- contribution to B cell helper activity of in vitro differentiated Tfh cells [5]: driven entirely by IL-12

B2: IL-23: recombinant human cytokine of the IL-12 cytokine family (protein, UniProt Q9NPF7 20-189; P29460 23-328, looked up)
Interleukin-23 subunit alpha: RAVPGGSSPAWTQCQQLSQKLCTLAWSAHPLVGHMDLREEGDEETTNDVPHIQCGDGCDPQGLRDNSQFCLQRIHQGLIFYEKLLGSDIFTGEPSLLPDSPVGQLHASLLGLSQLLQPEGHHWETQQIPSLSPSQPWQRLLLRFKILRSLQAFVAVAARVFAHGAATLSP
Interleukin-12 subunit beta: B1 Interleukin-12 subunit beta
- synergy with TGFβ or activin A, induction of CXCR5+ or CXCR5+PD1+ cells (human naïve CD4 T cells [3]; FIG. 15, interleukin combined with TGFβ or activin A): synergizes with TGFβ or activin A but less potently than IL-12
- synergy with activin A on CXCR5 and PD-1 expression (human naïve CD4 T cells [3]): modest but detectable synergistic activity with activin A

B3: product of the Inhibin beta A gene (INHBA): secreted recombinant protein from the secretomics collection; forms the cytokine activin A as a homodimer (protein, UniProt P08476 311-426, looked up)
Inhibin beta A chain: GLECDGKVNICCKKQFFVSFKDIGWNDWIIAPSGYHANYCEGECPSHIAGTSGSSLSFHSTVINHYRMRGHSPFANLKSCCVPTKLRPMSMLYYDDGQNIIKKDIQNMIVEECGCS
modifications: Inhibin beta A chain
- induction of CXCR5 and PD-1 expression (PD-1+CXCR5+ cells) (human naïve CD4 T cells [6]): most potent inducer of CXCR5 and PD-1
